Reference: the supplement of paper PMC9876800

Test system: peptide library, one residue held at a place counted from the S/T acceptor
Assay: relative phosphorylation of the sub-library (ratio to the mean residue at this position); higher = residue favoured
Method in brief: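 Human or orthologue kinase constructs, purified and recombinant, were incubated under kinase-specific conditions in 384-well plates with biotinylated degenerate peptide sub-libraries. Each sub-library fixed one residue at one position around a central Ser/Thr. Incubations lasted 90 min with peptides at 50 μM and 50 μM ATP spiked with γ-32P-ATP, after which spots on streptavidin membranes were phosphorimaged and quantified by densitometry. Relative sub-library phosphorylation is a ratio to the mean residue at that position.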

Chain of CLK1, construct: aa128-end, human (P49759 128-484, looked up): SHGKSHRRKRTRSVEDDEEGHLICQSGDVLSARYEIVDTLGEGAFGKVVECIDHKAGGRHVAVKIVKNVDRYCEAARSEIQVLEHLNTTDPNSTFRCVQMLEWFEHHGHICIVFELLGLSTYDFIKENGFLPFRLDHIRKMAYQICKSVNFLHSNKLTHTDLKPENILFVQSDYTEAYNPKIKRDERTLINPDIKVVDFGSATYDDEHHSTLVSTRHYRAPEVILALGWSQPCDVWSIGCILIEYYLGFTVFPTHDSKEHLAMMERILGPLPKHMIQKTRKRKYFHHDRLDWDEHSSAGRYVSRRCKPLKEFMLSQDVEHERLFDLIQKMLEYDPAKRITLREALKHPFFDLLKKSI
Chain of PRKCZ, construct: Full length, human (Q05513 whole entry, looked up): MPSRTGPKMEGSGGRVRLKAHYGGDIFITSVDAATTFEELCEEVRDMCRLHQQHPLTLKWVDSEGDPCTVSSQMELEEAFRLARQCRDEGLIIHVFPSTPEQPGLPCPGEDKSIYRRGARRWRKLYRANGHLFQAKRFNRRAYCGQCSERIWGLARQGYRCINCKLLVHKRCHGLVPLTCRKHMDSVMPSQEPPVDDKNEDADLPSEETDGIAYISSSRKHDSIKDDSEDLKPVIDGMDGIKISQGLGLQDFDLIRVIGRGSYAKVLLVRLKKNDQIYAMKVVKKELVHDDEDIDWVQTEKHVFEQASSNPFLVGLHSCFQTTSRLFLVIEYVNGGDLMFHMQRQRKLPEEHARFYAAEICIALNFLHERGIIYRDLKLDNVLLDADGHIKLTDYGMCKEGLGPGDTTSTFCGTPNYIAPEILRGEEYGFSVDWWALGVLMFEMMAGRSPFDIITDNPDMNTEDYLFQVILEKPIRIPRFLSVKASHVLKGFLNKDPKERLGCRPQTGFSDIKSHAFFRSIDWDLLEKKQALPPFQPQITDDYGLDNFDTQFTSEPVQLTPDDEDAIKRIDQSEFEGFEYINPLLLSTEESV

CLK1, construct: aa128-end, human (from UniProt P49759)
relative phosphorylation
Conditions	at +1	at +2	at +3	at +4	at -1	at -2	at -3	at -4	at -5
A fixed	0.598	1.12	0.654	0.682	0.844	2.56	0.707	0.901	0.836
D fixed	0.144	0.577	0.507	0.907	0.327	0.602	0.306	0.506	0.591
E fixed	0.488	0.614	0.409	0.937	0.393	1.54	0.309	0.636	0.666
F fixed	0.442	0.909	0.713	1.01	0.669	0.339	0.317	0.87	1.86
G fixed	0.498	0.93	0.782	0.916	0.988	1.17	0.427	0.877	0.877
H fixed	0.56	1.23	1.01	0.915	0.822	0.482	0.634	1.02	0.956
I fixed	1.22	0.828	0.552	0.678	0.538	0.257	0.383	1.03	0.9
K fixed	0.704	1.53	3.14	1.47	2.35	0.993	2.66	1.8	1.49
L fixed	0.897	0.926	0.665	0.884	1.01	0.467	0.381	1.01	0.943
M fixed	0.839	0.985	0.633	0.907	0.999	0.427	0.394	0.866	0.891
N fixed	0.345	0.832	0.842	0.959	0.717	0.605	0.407	0.776	0.746
P fixed	5.99	1.18	1.84	0.92	0.993	0.588	0.368	0.725	0.839
Q fixed	0.739	0.875	0.854	1.19	1.02	0.936	0.598	0.871	0.742
R fixed	0.697	1.94	2.42	1.76	2.84	5.04	8.11	2.33	1.82
V fixed	1.95	1.08	0.627	0.722	0.667	0.345	0.325	0.92	0.809
W fixed	0.388	0.695	0.687	1.24	0.961	0.343	0.328	0.963	0.971
Y fixed	0.505	0.757	0.673	0.913	0.862	0.314	0.344	0.89	1.06
pThr fixed	0.711	1.62	0.67	1.58	0.273	0.444	0.355	0.642	0.501
pTyr fixed	0.383	0.451	0.856	0.874	0.523	0.283	0.321	0.748	0.76

PRKCZ, construct: Full length, human (from UniProt Q05513)
relative phosphorylation
Conditions	at +1	at +2	at +3	at +4	at -1	at -2	at -3	at -4	at -5
A fixed	0.673	0.759	0.778	1	1.16	0.809	0.78	1.13	1.32
D fixed	0.193	0.206	0.324	0.596	0.387	0.399	0.425	0.666	0.79
E fixed	0.293	0.203	0.319	0.563	0.375	0.355	0.437	0.661	0.732
F fixed	1.37	0.662	0.927	0.827	0.468	1	0.842	0.827	1.23
G fixed	1.1	0.52	1.07	1.07	1.21	1.45	1.28	1.57	1.52
H fixed	0.752	1.35	1.33	1.35	1.06	1.07	1.08	1.03	1.08
I fixed	0.868	0.646	0.646	0.608	0.259	0.288	0.378	0.468	0.533
K fixed	2.46	2.13	2.15	2.05	3.12	1.18	1.91	1.29	1.15
L fixed	0.768	0.577	0.834	0.64	0.457	0.47	0.535	0.59	0.803
M fixed	1.42	0.912	0.759	0.706	0.755	0.731	0.659	0.783	0.694
N fixed	0.832	0.908	0.975	1.08	1.26	1.19	1.11	1.4	1.25
P fixed	0.344	0.512	0.706	1.17	0.986	1.16	1.1	1.45	1.12
Q fixed	1.23	0.916	0.978	1.14	1.19	0.983	1.08	1.04	0.788
R fixed	2.39	4.07	2.08	1.34	2.43	2.99	3.2	1.45	1.31
V fixed	0.844	0.682	0.671	0.703	0.406	0.342	0.415	0.483	0.607
W fixed	0.61	0.803	1.28	1.13	0.579	0.973	0.909	1.33	1.23
Y fixed	0.841	1.14	1.17	1.01	0.89	1.61	0.855	0.824	0.837
pThr fixed	0.461	0.391	0.519	0.651	0.314	0.632	0.696	0.847	0.985
pTyr fixed	0.363	0.396	0.623	0.538	0.451	0.621	0.831	0.761	0.857
